Experimental data published in a protein production outcome set (Wang et al. 2014).

Test: label from the status in PepcDB records

Row | Sequence | protein production
1 | MNSLPGSIQTSRTNQQRPLISVIVPAYNAEDFILEALRSITAQDYEPLEILLVDDGSTDGTADLVRREMPTVRIIRQDNTGVAEARNTGLRNACGEFICLLDADDGWCPGKLHAQVQYLQQHPQTGAVYHAWQVWRPDAEGNFVSMPAPVVADSTAIDPALSGWIYPQLLMDCIVHTSTIMMRREFVEQLGFFRAELINGEDYDYWLRLSRLTRIDKLVGVYSFYRGSPGSLTNSVKPVNYEYNVVSAAAAKWGLAAPDGRALAAVDFQRRLGKLAFDFAYRHYRWGSARIARRAALQAWRHDPRRYKALLFWLASFFKREPRSAVQG | failed
2 | MNSPWETESGDRRVESGAGVSVGGRGQSRPRSCSIKAAEGKKGRSSACAPRWRLRSALLREDRCRSAPRIPRGCFSPRAPWRGGNSCAHCPRPRSGRPETGRAWGSRRAPRRGRPPAHGAPRPLPGLPRAASDRWAPARTSLIFILCPRGCLLLSARTLGIPWQPTSLRSRPTSLSPASCATQRASSWACSSASIETRPLNFFISYDAPPLRTRTIKLLVTFLVEEVSRNGAAKQEQFQETLYFTHLPRDKRLQKELLALQNDPPPGMTLNEKSVQNSITQWIVDMEGAPGTLYEGEKFQLLFKFSSRYPFDSPQVMFTGENIPVHPHVYSNGHICLSILTEDWSPALSVQSVCLSIISMLSSCKEKRRPPDNSFYVRTCNKNPKKTKWWYHDDTC | failed
3 | MNSQEQRGSFYAILSGFLYGFIGYFGISAIHGDLSASNMLFWRFLISSIFILIVLIPQLKNINDTYKSMFTAFLSGVLYYGLSTLLYFYASLYIGSGLSMVIFFTYPVIIMVFNYFFYSQTIPKIYYLAISVILIGMALLIDVNEIAFDLWGIFLGLASAFFYACYIVSSKNNEISPNVSTLMVCLGCMTTSLIVACLDHTFKVPTSFPVWLNLFGIGLVATVIPILLMLHSLKYISSEKASILSVLEPVFVVIFGVVLLGEELKPWHALGIVLVLAGALITLFSHRINLNQWLGAIYKS | failed
4 | MNSTLKSSVYILLIISVILVLNGYSYADSYVGGKPLDTLQNGTVTGDVNVDSYYGFTDPEGVGNNTGGNANITYTFNYTIPSNAQIKNATLYVLVYSGHMQEARQTYVNVTYNGNSLENQTLYTTYIYPPEGNNNTWLLGEGHDNDPYLMINNHTMRVTSDYLLWYDVTNMTKKDMNNTANVCTIGSYDGRIKLITLIVAYNIPGSTTATRYWINWGHDVSSYNDEDYTGETYFNGAVPNPANASVMIVHAASSDGIYTYNDQNLPNGTYQRRGSYSGYEIWNVTNIYNNGTNKFTYHKSPGTGLGGYYKIILAVQKVTYTPNIDLTLQTVTFNGGAAFVLENNTMRCQIKNNGSGASPATILALYANDELVATSIIPPINPSGTVYVNITDPTIRSATTETLYSNNNQNVTYRFVIDPYNEVPETNEANNEKTRTVPVLYNGYKG | failed
5 | MNSVYFLNVSEALATPQDKLHTVRLFGTVAADGLTMLDGAPGVRFRLEDKDNTSKTVWVLYKGAVPDTFKPGVEVIIEGGLAPGEDTFKARTLMTKCPLEHHHHHH | failed
6 | MNSYKYLKYSQYAKQALIFINFLAVTYYVFVYLFASKYIVAKNLSHVLLDKLDIVPIAPENIFFTTLFFFAIFLIVMFYRESILNKKEEINDWLIVAEIVLMILTFISLQFSYNGLFLLVFADIFYSYANFYNVKEQKYWLLFIILGFSMLLISNFDLLSLVMRLPSLDVYISFFPSGSRLIVMFIKNFLYSLNIIVFLISLVAYIMYSVAENHKIEEELRMAARANIELNDYVSLAEKIAEDKERKRIAREIHDTLGHALTGISAGIDAVTVLVDFDPNHAKSQLKNVSDVVREGIQDVRRSLEKMRPGALEKGSLKEALLKMIADYEKLSKLQVSLHYDWDNIDLDITKEDIIFRVIQETITNSLRHGHARHVSIDMLNEDFYIIKIKDDGIGCEDFKLGYGLTQMQERLAIIGGYADFESDDGFQTMVRIPKKKGEE | failed
7 | MNTDNPKSHISRIAYPAIIVFLILTLLGSLVERFHPFTSWLTPPVALLMGLAYALIFGSTHRRANKLGSKVLLQYSVVGLGFGMNLGESLASGRDGMMFTIISVFGTLLLGWFIGRKILQMNRNTSALISAGTAICGGSAIAAVGPILKAEEHEMSVALGTVFLLNAVALFIFPSIGHWLALDQQQFGTWAAIAIHDTSSVVGAGSAYGEEALRVATTIKLTRALWIVPLTLVFSFVYKTKGAKRFPVPLFILFFIGAIILNTYLLEAYFPEVGRFVASLARKGLTLSLFFIGASLTKEVIASVGVRALLQGLFLWILISVGSLAFILLI | failed
8 | MNTEAEQQLLHHARNGNAEEVRKLLEAMARAEVVADIDCKGRSKSNLGWTPLHLACYFGHKQVVQDLLKAGAKVNMLNDMGDTPLHRAAFTGRKELVMLLLEYNADTTVVNGSGQTAKEATHDKEIRQMLEAVERTQQRKLEELLLGAAREGRTAEVSALLSRPNPPDVNCSDQLGNTPLHCAAYRAHKQCVLKLLRSGADPSLKNKNDQKPLDLAHGTEMKHILVGNKVVHKALKRFEGPLWKSSRFFGWKLFWVVLEHGVLSWYRKQPDAVHNSYRQGCKHLTQAVCTVKPTDGCLFSVRCFDDTVHGFRVPKNSLQQSREKWLEAIEEHSAYSTHYCSQDQVTDDEEEDVASAMDLKESLARAQTCQQRLDREIYNFLKMIKECDVAKDMLPSFLQKADVLSEASRETCVALSDCLNLFTKQEGVRNFKLEQEQEKNKILSEALETLATEHHELERSLVEGSPPVSILSEDEFYDALSGSESEGSLTCLEAVTARAFEENEVPANSGKHRMSEGKDCGGGDALSNGIKKHRTSLPSPMFSRNDFSIWSILRKCIGMELSKITMPVIFNEPLSFLQRLTEYMEHTYLIHKASSFSDPVERMQCVAAFAVSAVASQWERTGKPFNPLLGETYELVRDDLGFRLISEQVSHHPPISAFHAEGLNNDFIFHGSIYPKLKFWGKSVEAEPKGTITLELLEHNEAYTWTNPTCCVHNIIVGKLWIEQYGNVEIINHKTGDKCVLNFKPCGLFGKELHKVEGYIQDKSKKKLCALYGKWTECLYSVDPATFDAYKKNDKKNTEEKKTSKQASTSEESDEMPVPDSESVFVIPGSALLWRIAPRPPNSAQMYNFTSFAMVLNEVDKEMETVIPKTDCRLRPDIRAMENGEIDQASEEKKRLEEKQRAARKNRSKSEEDWKTRWFHQGPNPYSGAQDWIYSGSYWDRNYFNLPDIY | failed
9 | MNTFGIFLTISAYTFFSWAYSKKKTPILNPVLLSILLIALILKVGNISYEKYMESARFLSFLLGPAVVSLAIPLYKQINIVKEYKKEIATGIITGGTTAILSAVYILKAFNSPEILQRTIAPKSVTTAIAMGVSEKIGGIPELTAVLVILTGILGNALAPELLDFFKIKDRVARGLATGVSSHGLGTARIILEDELSGAVSGLAMALNGVYTAFLLPLIIELIV | failed
10 | MNTKNLVFVALFSSIMGVLGLIPPIALSITPVPITLQSLGVMLAGGLLGSRLGALSQLIFLLIVGVGAPLLAGGRGGLGVFVGPSAGYLLGYIIGAFVIGYLIERLREVSIIKVLCINIIGGIFVVYVFGITVQAFLMDVSVWETMKVSAVFLPGDCIKAIIAAVLVTKLHRSLKHIITPALKNGKYTNAG | failed
11 | MNTLFFSRQQYWLALIFGCLLVFLAASLGHGQWLDYAQRVATLDEPLSRLRWIVGDISEVAFYKHELPALGLLLGACLAHWAQLRGYRWQGFAICYGSGLWPWVFTSSLLGLLLSHVLWGWTLASGTWQPTFVAFVSLPAAMVLLFGAGWRVTITGALLGALLVTPAGLLMVNYLCYPLQLPVVVGNVSGMAVASVVAFILCKRFPSWVRQCGEPTVVAPVVNQPDYGVVWTLRRVLADFSEAPFFGNELASLGLLLGVLLAYLLSPAALSYGSMLVMQMVAGQALASLVGVVLWRGQWKARGWYPTYIPIVSIVPAAVLTHGGSWQVVVASAVLGALVAPPLAVAITQRLPAYVHGYIGNVVSMAICTLGIVPVVGLLVGGEA | failed
12 | MNTLIIAKKEIVSAFRDKRTFLFMLAFPIVLIMILGTALTNAFDQQAAVGEVRVLYKDNSDGAFSQGFKTFVKEAKTSGVHFKKVLSDMDEKQEIKQGNYDAYLEIENSGIKLYQMDKNSMKNSIIQGMLTAFANRYNAAAEIIKAAPEQAGAVLGDAPGDNYIKETSLSSDRKPSSMDYYAVAMTTLIALYSALSASYLIRGERLRKTADRLIAAPVHKGEIFAGKLIGNLVTNGLCIFAVVAVSKYVFKAYWGEHLGLVAAVLFSIVLFAVCLGLGVSYLTRTGEAAVAIINVLIPLVAFFGGAYFPVDDAEGVLALITDLSPLAWTNEAIMNIIFADDLAAGLPAILLNIGLSLLFLLIAVVSLQRREGL | failed
13 | MNTLKKAFEILDFIVKNPGDVSVSEIAEKFNMSVSNAYKYMVVLEEKGFVLRKKDKRYVPGYKLIEYGSFVLRRFNIRDIAHDHLVDIMKRTGETVHLILKDGFEGVYIDKVEGEQSIPMVSRLGMKVDLYSTASGKSILAFVPEKELKEYLKIVELKPKTPNTITNPRVLKRELEKIRKRGYAVDNEENEIGIMCVGVPIFDHNGYPVAGVSISGVARKFTEEKIEEYSDVLKEKAEEISRKLGY | not failed
14 | MNTLRTAMLLAAMTALFMGVGFLIGGSGGMMIALLIAAGTNLFSYWNADKMVLSMNRAVEVDEKNAPEYYAIVQALAKQAGLPMPRTYLIDNPQPNAFATGRNPQNAAVAASTGLLQRLTHEEVAAVMAHELAHVQHRDTLTMTIVATFAGAISMLGNFAFFLGGNRDNNPFGFVGVLAAMIVAPFAAMIVQMAVSRTREYEADRRGAEICGHPLWLASALDKIARGAERIPNPDAERNPAMAHLFIINPLHGERMDNLFSTHPSTDNRIAALQEMAQQMAGGTQAAPRPTPRQAGEQQPSGPWGQAPQAEQPAEPERPKANPWGRNPTGPKGRWS | failed
15 | MNTRPFYFGLIFIAIIAILANYLGNTDFSHHYHISALIIAILLGMAIGNTIYPQFSTQVEKGVLFAKGALLRTGIVLYGFRLTFGDIADVGLNAVVTDAIMLISTFFFTALLGIRYLKMDKQLVYLTGAGCSICGAAAVMAAEPVTKAESHKVSVAIAVVVIFGTLAIFTYPLFYTWSQHLINAHQFGIYVGSSVHEVAQVYAIGENIDPIVANTAVISKMIRVMMLAPFLLMLSWLLTRSNGVSENTSHKITIPWFAVLFIGVAIFNSFDLLPKELVKLFVEIDSFLLISSMAALGLTTQASAIKKAGLKPFVLGILTYLWLVVGGFLVNYGISKLI | failed
16 | MNTVCTACMATNRLPEERIDDGAKCGRCGHSLFDGEVINATAETLDKLLQDDLPMVIDFWAPWCGPCRSFAPIFAETAAERAGKVRFVKVNTEAEPALSTRFRIRSIPTIMLYRNGKMIDMLNGAVPKAPFDNWLDEQLSRDPNS | not failed
17 | MNVDVLIGEILTLSMMAFALGMDAFSVGLGMGMAKLKRNQVFQIGVIIGLFHVIMPLGGMIAGQFLSGALGALAGYIGGALLLVLGIQMIVASFNKSGEQIISPHGFGLFVFAVGVSLDSFSVGLSLGLYGTKPILTIFLFGLFSMVLTWAGLLLGKKVQTWLGAYSEALGGAILLSFGLKLLLPI | failed
18 | MNVFARSSVLAAEMIDVFDRTHTEKELVFQSKELCRDFIHSRITREGLSWSKVELDLPEPRGVLVDVSVVLLKLGDELECMRPYVYRNIAKQLNISVSVEAVVSDAFLSVATEVIAMGITWGKVVAIYAVAAGLAVDCVRLGHPVMVHTIVDSLGEFVRRSLVPWLKKRGGWVDILKCVVNMDSRAHVHWLSTAVLTWREFIKTMYVYLTK | failed
19 | MNVINETANVLKLETGSVTSAKGFSAVGIHTGVKRKRKDLGAIVCEVPASSAAVYTLNKVQAAPLKVTQESIAVEGKLQAMIVNSGIANACTGKRGLDDAYTMRAVGAETFHIPEHYVAVTSTGVIGEFLPMDVITNGIRQLKPEATIEGAHAFNEAILTTDTVEKHTCYQTIVNGKTVTVGGVAKGSGMIHPNMATMLSFVTTDANIDHGHLQGALSAITNETFNRITVDGDTSTNDMVVVMASGLAENEALTPEHPDWANFYKALQLACEDLAKQIARDGEGATKLIEVEVTGAANDQEAGMVAKQIVGSDLVKTAIYGADANWGRIICAIGYSGCEVNQETIDIAIGPIVTLKQSEPTGFSEEEATAYLKEADPVKISVNLHIGNGTGKAWGCDLTYDYVRINAGYRT | not failed
